Earlier results on one molecule are cited in US9545449B2, “Site-specific labeling and targeted delivery of proteins for the treatment of cancer” (Advanced Proteome Therapeutics Inc., priority 2012, dated 2017).

The conditions of the data set: binding to phosphatidylserine; from Thiagarajan and Tait, J. Biol. Chem. 265:17420-17423 (1990); read-out: Kd (affinity for PS).

B1: Annexin V: human annexin V (SEQ ID NO:1) (Accession P08758); phosphatidylserine-binding protein (protein, listed as Homo sapiens)
chain: MAQVLRGTVTDFPGFDERADAETLRKAMKGLGTDEESILTLLTSRSNAQRQEISAAFKTLFGRDLLDDLKSELTGKFEKLIVALMKPSRLYDAYELKHALKGAGTNEKVLTEIIASRTPEELRAIKQVYEEEYGSSLEDDVVGDTSGYYQRMLVVLLQANRDPDAGIDEAQVEQDAQALFQAGELKWGTDEEKFITIFGTRSVSHLRKVFDKYMTISGFQIEETIDRETSGNLEQLLLAVVKSIRSIPAYLAETLYYAMKGAGTDDHTLIRVMVSRSEIDLFNIRKEFRKNFATSLYSMIKGDTSGDYKKALLLLCGEDD
With B1, the Kd was 1.7 nM.

Broadly, the Kd is the concentration at which binding is half-saturated.
